Data: US5922541

What was measured:
human neutrophils = assay: competition of 125I-IL-8 by unlabelled IL-8 on human neutrophils, Scatchard analysis
[1] = molecular target: human IL-8 type A receptor (IL8R-A), encoded by clone pRK5B.il8r1.1 (human); assay: competition of 125I-IL-8 by unlabelled IL-8 on COS cells transfected with pRK5B.il8r1.1, Scatchard analysis

- Kd (human neutrophils): 1.1 nM
- Kd [1]: 3.6 nM
Substance: recombinant human IL-8 (72 amino acid form, made in E. coli) (from UniProt P10145) (ligand)
